The values below come from publication doi:10.1101/2024.12.16.628640.

The target of assay [1] is D-glucose isomerase (D-xylose isomerase, XylA) of Xanthomonas campestris, His-tagged (Xanthomonas campestris). In words: SEC. (In general: In gel filtration, larger molecules generally elute earlier.)
Assay [2] deals with D-glucose isomerase (XylA) of Xanthomonas campestris with the exchange W147S, His-tagged (Xanthomonas campestris). Nature of the assay: SEC.

What is called stoichiometry N is the number of molecules, sites or subunits per partner or assembly. Take “D-glucose isomerase (D-xylose isomerase, XylA) of Xanthomonas campestris, His-tagged (enzyme)”: the stoichiometry N in assay [1] was determined as 2.
As for “D-glucose isomerase (XylA) of Xanthomonas campestris with the exchange W147S, His-tagged (enzyme)”, the stoichiometry N in assay [2] was determined as 2.
